Data from CN113388029A (WUHAN INST VIROLOGY CAS, dated 2021).

Key:
[1] = target: T1, 新型冠状病毒囊膜蛋白受体结合域 WH-RBD-TFc (SARS-CoV-2 S蛋白 RBD 319-541 - 凝血酶位点 - 人源IgG1 Fc) (SARS-CoV-2; human, UniProt P0DTC2 319-541); experiment: ELISA, WH-RBD-TFc coated at 4 μg/mL, Fab titrated, detected with HRP anti-FLAG antibody
[2] = target: T1, 新型冠状病毒囊膜蛋白受体结合域 WH-RBD-TFc (SARS-CoV-2 …); experiment: ELISA, WH-RBD-TFc coated at 4 μg/mL, IgG titrated, detected with HRP goat anti-human IgG (Fab)
[3] = target: T1, 新型冠状病毒囊膜蛋白受体结合域 WH-RBD-TFc (SARS-CoV-2 …); experiment: BLI, biotinylated WH-RBD-TFc immobilised (40 μg/ml), IgG titrated in solution (both partners bivalent)

Row | Binder | EC50 [1] [nM] | EC50 [2] [nM] | Kd [3] [nM]
1 | Fab-F1-A3 (Fab, V domains shown, also called 抗体Fab F1-A3) VH: QVQLVESGGGLVQPGGSLRLSCAASGFTVSSNYMSWVRQAPGKGLEWVSVIYSGGSTYYADSVKGRFTISRDNSKNTLYLQMNSLRAEDTAVYYCARGDGSDDYYYGMDVWGQGTTVTVSS VL: QSVVTQPPSVSGAQGQRVFISCTGNGANIGMGYDVHWYQQLPGRAPKLLIFGNTNRPSGVPDRFSASRSGTSASLAITGLQTADEADYYCQSYDGNLRASVFGGGTKLTVLG | 4 | – | –
2 | IgG-F1-A3 (antibody, V domains shown) VH: QVQLVESGGGLVQPGGSLRLSCAASGFTVSSNYMSWVRQAPGKGLEWVSVIYSGGSTYYADSVKGRFTISRDNSKNTLYLQMNSLRAEDTAVYYCARGDGSDDYYYGMDVWGQGTTVTVSS VL: QSVVTQPPSVSGAQGQRVFISCTGNGANIGMGYDVHWYQQLPGRAPKLLIFGNTNRPSGVPDRFSASRSGTSASLAITGLQTADEADYYCQSYDGNLRASVFGGGTKLTVLG | – | ~0.78 | 0.013
